According to article PMC7372559 (ACS Chemical Biology, 2020):
Numbering of substitutions follows the chain as printed. In names and notes the source's numbering stands.

B1: OphMA V404T, full-length, His-tagged (enzyme)
chain: METSTQTKAGSLTIVGTGIESIGQMTLQALSYIEAAAKVFYCVIDPATEAFILTKNKNCVDLYQYYDNGKSRLNTYTQMSELMVREVRKGLDVVGVFYGHPGVFVNPSHRALAIAKSEGYRARMLPGVSAEDCLFADLCIDPSNPGCLTYEASDFLIRDRPVSIHSHLVLFQVGCVGIADFNFTGFDNNKFGVLVDRLEQEYGAEHPVVHYIAAMMPHQDPVTDKYTVAQLREPEIAKRVGGVSTFYIPPKARKASNLDIIRRLELLPAGQVPDKKARIYPANQWEPDVPEVEPYRPSDQAAIAQLADHAPPEQYQPLATSKAMSDVMTKLALDPKALADYKADHRAFAQSVPDLTPQERAALELGDSWAIRCAMKNMPSSLLDAARESGEEASQNGFPWVIVTGVIGVIGSVMSTE
modifications: backbone N-methylation: 10-fold methylated species most abundant
B2: OphMA V406T, full-length, His-tagged (enzyme)
chain: B1 chain with T404V, V406T
modifications: backbone N-methylation: 3-fold methylated species most abundant
B3: OphMA I407T, full-length, His-tagged (enzyme)
chain: B1 chain with T404V, I407T
modifications: backbone N-methylation: 9-fold methylated species most abundant
B4: OphMA V403F, full-length, His-tagged (enzyme)
chain: B1 chain with V403F, T404V
modifications: backbone N-methylation: comparably abundant monomethylated, dimethylated, trimethylated and tetramethylated species
B5: OphMA V404F, full-length, His-tagged (enzyme)
chain: B1 chain with T404F
modifications: backbone N-methylation: mainly monomethylated
B6: OphMA V406F, full-length, His-tagged (enzyme)
chain: B1 chain with T404V, V406F
modifications: backbone N-methylation: a tetramethylated species and, to a lesser extent, a trimethylated species
B7: OphMA I407F, full-length, His-tagged (enzyme)
chain: B1 chain with T404V, I407F
modifications: backbone N-methylation: mainly a tetramethylated species with some pentamethylated species
B8: OphMAΔC6-V404F (crystallised with SAH) (enzyme)
chain: METSTQTKAGSLTIVGTGIESIGQMTLQALSYIEAAAKVFYCVIDPATEAFILTKNKNCVDLYQYYDNGKSRLNTYTQMSELMVREVRKGLDVVGVFYGHPGVFVNPSHRALAIAKSEGYRARMLPGVSAEDCLFADLCIDPSNPGCLTYEASDFLIRDRPVSIHSHLVLFQVGCVGIADFNFTGFDNNKFGVLVDRLEQEYGAEHPVVHYIAAMMPHQDPVTDKYTVAQLREPEIAKRVGGVSTFYIPPKARKASNLDIIRRLELLPAGQVPDKKARIYPANQWEPDVPEVEPYRPSDQAAIAQLADHAPPEQYQPLATSKAMSDVMTKLALDPKALADYKADHRAFAQSVPDLTPQERAALELGDSWAIRCAMKNMPSSLLDAARESGEEASQNGFPWVIVFGVIGVIG
modifications: backbone N-methyl at Val401 and Val403 (in the crystal structure)

Molecular target: the molecule itself
Assay: SEC; Superdex-200 Increase column, 25 mM Tris-HCl (pH 8.0), 10% (v/v) glycerol, 100 mM NaCl; retention time of mutants compared with wild type

Protein | stoichiometry N
B1 | 2
B2 | 2
B3 | 2
B4 | 2
B5 | 2
B6 | 2
B7 | 2

Molecular target: the molecule itself
Assay: crystal structure; hanging drop, 16 °C; protein (30-50 mg/mL) preincubated with 3 mM SAM; 0.3-0.4 M KSCN, 1.8-2.4 M sodium malonate, 0.1 M bicine pH 8.5-9.3; SAH bound

Protein | binding result
B8 | binds
